In paper PMC4728126, “Stable G protein-effector complexes in striatal neurons: mechanism of assembly and role in neurotransmitter signaling” (eLife, 2015):

Molecular target: adenylyl cyclase type 5 (mouse (endogenous in striatum)) (UniProt P84309)
Sequence (P84309 whole entry): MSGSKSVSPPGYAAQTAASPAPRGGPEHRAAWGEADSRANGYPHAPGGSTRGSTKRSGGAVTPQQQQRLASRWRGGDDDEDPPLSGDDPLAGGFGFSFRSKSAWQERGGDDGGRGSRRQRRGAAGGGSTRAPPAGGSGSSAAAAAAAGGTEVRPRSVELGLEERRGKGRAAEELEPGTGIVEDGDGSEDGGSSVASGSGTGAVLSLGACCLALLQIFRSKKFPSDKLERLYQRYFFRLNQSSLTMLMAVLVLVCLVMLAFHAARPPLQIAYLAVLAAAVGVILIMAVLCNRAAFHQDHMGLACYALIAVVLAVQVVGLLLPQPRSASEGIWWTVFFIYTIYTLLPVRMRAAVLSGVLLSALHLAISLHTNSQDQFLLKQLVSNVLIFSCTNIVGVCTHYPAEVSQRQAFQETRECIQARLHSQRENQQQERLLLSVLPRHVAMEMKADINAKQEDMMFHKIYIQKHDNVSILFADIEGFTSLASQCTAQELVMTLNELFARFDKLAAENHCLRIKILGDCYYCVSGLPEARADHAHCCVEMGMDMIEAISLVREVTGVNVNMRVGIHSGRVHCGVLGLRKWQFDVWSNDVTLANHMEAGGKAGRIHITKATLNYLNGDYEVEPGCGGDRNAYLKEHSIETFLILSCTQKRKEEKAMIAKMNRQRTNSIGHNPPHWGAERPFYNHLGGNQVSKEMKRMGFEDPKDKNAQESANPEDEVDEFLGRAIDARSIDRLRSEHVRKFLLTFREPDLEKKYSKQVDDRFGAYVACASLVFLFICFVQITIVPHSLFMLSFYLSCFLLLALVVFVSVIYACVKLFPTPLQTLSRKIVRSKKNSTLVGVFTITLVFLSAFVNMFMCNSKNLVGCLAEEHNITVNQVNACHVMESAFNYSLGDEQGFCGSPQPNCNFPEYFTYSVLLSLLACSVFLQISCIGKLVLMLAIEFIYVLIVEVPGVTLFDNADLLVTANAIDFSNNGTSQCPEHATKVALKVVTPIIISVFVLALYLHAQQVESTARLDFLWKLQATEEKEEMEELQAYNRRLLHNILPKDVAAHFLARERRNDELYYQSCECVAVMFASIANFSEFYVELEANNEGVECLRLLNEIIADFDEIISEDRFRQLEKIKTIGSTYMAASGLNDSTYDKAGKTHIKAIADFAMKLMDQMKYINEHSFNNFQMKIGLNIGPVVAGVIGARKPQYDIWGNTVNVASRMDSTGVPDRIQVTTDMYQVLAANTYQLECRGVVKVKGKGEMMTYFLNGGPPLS

Sequence of Gαs-GTPγS (P63092 whole entry): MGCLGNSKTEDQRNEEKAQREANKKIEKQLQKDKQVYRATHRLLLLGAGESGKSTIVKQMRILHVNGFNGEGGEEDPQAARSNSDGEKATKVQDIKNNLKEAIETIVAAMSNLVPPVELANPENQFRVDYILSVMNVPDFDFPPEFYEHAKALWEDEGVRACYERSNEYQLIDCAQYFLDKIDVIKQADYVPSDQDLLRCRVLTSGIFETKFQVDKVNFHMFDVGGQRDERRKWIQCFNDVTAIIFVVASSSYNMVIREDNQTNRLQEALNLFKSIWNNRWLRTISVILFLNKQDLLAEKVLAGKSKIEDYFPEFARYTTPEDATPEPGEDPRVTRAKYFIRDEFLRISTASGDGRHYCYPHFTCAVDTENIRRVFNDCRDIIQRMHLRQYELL

Question: How did the EC50 of Gαs-GTPγS-mediated activation of adenylyl cyclase in striatal membranes, PhLP1-treated reaction (0.5 μM purified PhLP1) turn out when “Gαs-GTPγS (from UniProt P63092 1-394) (natural protein)” was run?
Answer: 22.3 nM

Question: And the EC50 of Gαs-GTPγS-mediated activation of adenylyl cyclase in striatal membranes, control reaction?
Answer: 16.2 nM
